In US5843888:

Assays:
[1] = molecular target: α chain (α96Val→Trp) with the N-terminal methionine, as expressed in E. coli before processing (human)
[2] = molecular target: β chain of human hemoglobin with the N-terminal methionine, as expressed in E. coli before processing (human)

removal of the N-terminal methionine, electrospray mass spectrometry of the purified r Hb [1]: > 98%
removal of the N-terminal methionine, electrospray mass spectrometry of the purified r Hb [2]: 90%
Substance: E. coli methionine aminopeptidase (from UniProt P0AE18) (enzyme)
